US10864251B2, “Peptides of syndecan-1 for inhibiting angiogenesis” (Wisconsin Alumni Research Foundation, priority 2006, dated 2020)

How the values were obtained:
[1] = test system: syndecan-1 association with the αvβ3 and αvβ5 integrins; experiment: Co-immunoprecipitation of β3/β5 integrin with syndecan-1 from HMEC-1 cells; assay type: binding, human; settings: HMEC-1, 30 μM GST-mS1ED or 1 μM SSTN
From the text: (§1) FIGS. 8A-8D—SSTN disrupts association of syndecan-1 with the αvβ3 and αvβ5 integrins. (FIG. 8A) Diagram of mouse syndecan-4 (mS4), human syndecan-1 (hS1) and mouse syndecan-1 (mS1) and mS1 deletion mutants showing which proteoglycans are able to activate the αvβ3 and αvβ5 integrins. (FIG. 8B) Flow cytometry of human aortic endothelial cells (HAEC), human dermal microvascular endothelial cells (HMEC-1) or mouse aortic endothelial cells (MAEC) using human or mouse-specific antibodies for syndecan-1, αvβ3, and αvβ5. The β5 subunit is detected by Western blot in mouse cells and is compared to B82L fibroblasts known to express this integrin; (FIG. 8C) Human syndecan-1 is immunoprecipitated from HMEC-1 cells in the presence or absence of 30 μM GST, 30 μM GST-mS1ED (mouse syndecan-1 ectodomain), or 1 μM SSTN and detected on blots along with co-precipitating β3 or β5 integrin. (FIG. 8D) Human syndecan-1 is immunoprecipitated from MDA-MB-231 human mammary carcinoma cells expressing full-length mouse syndecan-1 (F1-mS1), a mouse mutant bearing deletion of amino acids 67-121 (mS1^Δ67-121), or vector alone (NEO) and blotted for the co-precipitation of the αvβ3 integrin by detection of the β3 subunit. […]

[2] = target: T1, syndecan-1 association with the αvβ3 integrin (Homo sapiens, UniProt P05106+P06756); experiment: Co-immunoprecipitation of αvβ3 integrin with syndecan-1 from MDA-MB-231 cells; assay type: binding
T1 construct: endogenous in cells; host or cells: MDA-MB-231 human mammary carcinoma cells (some also transfected with mouse syndecan-1 constructs)
From the text: as §1

B82L fibroblasts = settings: B82L cells; McQuade et al., 2006; read-out: IC50, recognition of VN; cited from earlier work

T1 sequence (P06756 31-889 limits assumed): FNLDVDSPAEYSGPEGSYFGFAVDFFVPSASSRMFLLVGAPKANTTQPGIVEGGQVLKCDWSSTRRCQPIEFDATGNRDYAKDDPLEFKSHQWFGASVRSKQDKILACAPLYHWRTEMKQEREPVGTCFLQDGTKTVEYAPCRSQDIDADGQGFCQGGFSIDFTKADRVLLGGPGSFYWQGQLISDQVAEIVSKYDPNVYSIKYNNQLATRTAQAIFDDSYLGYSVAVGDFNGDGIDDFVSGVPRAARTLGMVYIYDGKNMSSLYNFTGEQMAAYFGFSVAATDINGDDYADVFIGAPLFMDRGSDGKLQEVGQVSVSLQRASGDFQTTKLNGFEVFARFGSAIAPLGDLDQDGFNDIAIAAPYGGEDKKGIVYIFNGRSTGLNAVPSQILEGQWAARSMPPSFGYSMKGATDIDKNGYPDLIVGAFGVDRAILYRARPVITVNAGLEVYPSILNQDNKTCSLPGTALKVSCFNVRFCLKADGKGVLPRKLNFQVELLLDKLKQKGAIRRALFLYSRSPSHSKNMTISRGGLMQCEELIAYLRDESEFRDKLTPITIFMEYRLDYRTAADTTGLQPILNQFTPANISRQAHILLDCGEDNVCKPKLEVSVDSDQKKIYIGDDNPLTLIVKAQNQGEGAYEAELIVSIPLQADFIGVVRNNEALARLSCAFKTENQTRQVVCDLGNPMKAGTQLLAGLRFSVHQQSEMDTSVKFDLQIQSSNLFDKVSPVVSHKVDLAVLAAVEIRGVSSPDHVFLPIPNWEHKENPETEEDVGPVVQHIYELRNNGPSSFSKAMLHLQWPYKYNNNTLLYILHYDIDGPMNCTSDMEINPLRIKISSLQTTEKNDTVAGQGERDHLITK
T1 sequence (P06756 891-1048 limits assumed): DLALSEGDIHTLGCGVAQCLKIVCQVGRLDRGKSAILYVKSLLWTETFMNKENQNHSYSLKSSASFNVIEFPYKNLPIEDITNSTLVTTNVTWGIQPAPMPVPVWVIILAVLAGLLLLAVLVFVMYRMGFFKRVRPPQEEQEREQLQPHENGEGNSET
T1 sequence (P05106 27-788): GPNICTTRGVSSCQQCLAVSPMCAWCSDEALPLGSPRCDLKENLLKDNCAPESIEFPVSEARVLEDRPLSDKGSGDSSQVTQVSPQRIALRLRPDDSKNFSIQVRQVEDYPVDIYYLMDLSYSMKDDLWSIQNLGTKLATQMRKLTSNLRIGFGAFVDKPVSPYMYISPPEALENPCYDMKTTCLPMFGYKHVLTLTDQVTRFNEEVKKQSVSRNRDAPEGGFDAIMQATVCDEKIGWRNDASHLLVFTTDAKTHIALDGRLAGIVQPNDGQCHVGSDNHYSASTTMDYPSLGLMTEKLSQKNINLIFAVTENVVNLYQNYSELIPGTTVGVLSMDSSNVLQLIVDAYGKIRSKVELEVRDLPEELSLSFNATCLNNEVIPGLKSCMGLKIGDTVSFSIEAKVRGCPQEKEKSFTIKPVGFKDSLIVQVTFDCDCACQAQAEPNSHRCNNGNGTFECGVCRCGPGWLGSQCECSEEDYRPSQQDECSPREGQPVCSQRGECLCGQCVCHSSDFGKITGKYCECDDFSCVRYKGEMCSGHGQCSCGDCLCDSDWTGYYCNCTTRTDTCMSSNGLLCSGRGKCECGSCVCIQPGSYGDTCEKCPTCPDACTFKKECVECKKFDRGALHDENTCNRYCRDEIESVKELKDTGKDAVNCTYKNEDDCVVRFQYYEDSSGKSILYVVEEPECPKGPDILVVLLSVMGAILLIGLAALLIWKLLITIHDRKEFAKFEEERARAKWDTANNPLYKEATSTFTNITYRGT

B1: S1ED: recombinant mouse Sdc1 ectodomain (amino acids 18-251), expressed in bacteria as GST fusion or 6×His-tagged protein (protein)
chain: QPALPQIVAVNVPPEDQDGSGDDSDNFSGSGTGALPDTLSRQTPSTWKDVWLLTATPTAPEPTSSNTETAFTSVLPAGEKPEEGEPVLHVEAEPGFTARDKEKEVTTRPRETVQLPITQRASTVRVTTAQAAVTSHPHGGMQPGLHETSAPTAPGQPDHQPPRVEGGGTSVIKEVVEDGTANQLPAGEGSGEQDFTFETSGENTAVAAVEPGLRNQPPVDEGATGASQSLLDRK
modifications: left off: a dimerising Fc or GST
notes: recombinant mouse Sdc1 ectodomain (amino acids 18-251), expressed in bacteria as GST fusion or 6×His-tagged protein
[1]
  co-precipitation of β3 and β5 integrin with human syndecan-1: displace the integrins
[2]
  co-immunoprecipitation of αvβ3 integrin with human or mouse syndecan-1: competed
B82L fibroblasts
  IC50: 3 to 10 µM
